Assay results as given in EP4610267A1, “CYCLIC DINUCLEOTIDES AND CONJUGATES THEREOF WITH ANTIBODIES” (priority 2024, dated 2025).

Legend:
[1] = In vitro mouse plasma stability of antibody-CDN conjugates (payload CDN 2.2 retention on mAb by LC-MS); assay type: in vitro ADME
Experimental: (§2) In vitro plasma stability of ADC was performed by spiking mouse plasma with antibody-CDN conjugates (final concentration 100µg/mL). Samples were incubated in a 37°C incubator with 5% CO2, aliquots were taken at various time points and stored frozen for analysis.
(§3) Briefly, 25µL of plasma samples were incubated with biotinylated anti-human Fcy fragment mAb (final concetration 0.18mg/mL, Jackson ImmunoResearch cat # 109-065-098) for 30 min and then mixed with 30 µL Dynabead MyOne Streptavidin T1 (Invitrogen cat # 65604D) and 70 µL PBS. After 1 hour incubation, the beads were separated on a magnet, washed with PBS containing 0.05% Tween20, PBS and water, and ADCs were eluted in the presence of 0.2% of formic acid in water. Eluate was neutralized by adding ammonium formate (400mM final concentration) and ADCs were reduced with TCEP (40mM final concentration) for 30 minutes at room temperature. Samples were then measured by LC-MS and analyzed for compound-to-antibody ratio as described above.

[2] = as above; assay type: in vitro ADME; conditions: retention of CDN 2.2 on mAb
Experimental: as §2, §3

[3] = Compound-to-antibody ratio (DAR) of antibody CDN conjugates by LC-MS
Experimental: Antibody CDN-conjugates were analyzed to determine the extent of conjugation. A compound-to-antibody ratio was extrapolated from LC-MS data for reduced samples. LC-MS allows quantitation of the average number of molecules of linker-payload attached to an antibody in a conjugate sample. Mass spectral data enables identification of the component species in the mixture, e.g., LC, LC+1, LC+2, HC, HC+1, HC+2, etc. From the average loading on the LC and HC chains, the average compound to antibody ratio can be calculated for an antibody conjugate. A compound-to-antibody ratio for a given conjugate sample represents the average number of compound (linker-payload) molecules attached to a tetrameric antibody containing two light chains and two heavy chains. The samples were reduced with 40 mM TCEP or 5.5 mM DTT, injected onto a MassPREP Micro Desalting column (20 µm, 5-mm by 2.1-mm ID, Waters) equilibrated in 0.1% formic acid (FA) in H2O and eluted by a fast gradient (4min) to 0.1% FA in acetonitrile. The separation was carried out by AQUITY UPLC I-Class system (Waters) and was on-line coupled to Mass Spectrometer Synapt G2 (Waters) to acquire mass spectra using electrospray ionization in positive mode. The TOF mass range was set from m/z 500 to 4000. The raw spectrum was subtracted and deconvoluted (MaxEnt 1, Waters) to produce the final spectrum. Conjugates were profiled using analytical size-exclusion chromatography on Superdex 200 equilibrated in PBS pH7.4; aggregation was analyzed based on analytical size exclusion chromatography.

STING WT = biological target: T1, STING WT (Homo sapiens, UniProt Q86WV6, H232R); test: 293T STING digitonin reporter assay (WT haplotype); assay type: cell-based; conditions: digitonin permeabilised 293T reporter cells
T1 construct: expressed in transfected cells
Experimental: (§1) Digitonin Assay with 293T Reporter Cells. The generation of 293T reporter cells stably expressing different STING protein haplotypes (WT, HAQ, REF, AQ, or Q) was described previously (Novotna et al, J. Med. Chem. 2019,62, 10676). The cells were seeded at a density of 250 000 cells per cm^2 into 96 well white poly(D-lysine) coated plates in 100 µL of DMEM with high glucose supplemented with 10% heat inactivated FBS. Next day, the medium was removed, and compounds were added in 3-fold serial dilutions in a digitonin buffer containing 50 mM HEPES (pH 7.0), 100 mM KCl, 3 mM MgClz, 0.1 mM DTT, 85 mM sucrose, 0.2% (w/w) BSA, 1 mM ATP, 0.1 mM GTP, and 10 µg/mL digitonin A. After 30 min incubation at 37 °C with 5% CO2, the digitonin buffer was removed, cells were washed once with 100 µL of the cultivation medium, and 100 µL of fresh medium was added to each well. The plates with cells were further incubated for 5 h at 37 °C with 5% CO2. Thereafter, 50 µL of the medium was removed, and 30 µL of Bright-Glo Luciferase Assay System reagent was added to each well. […] Nonlinear regression curve fit with standard slope was used for EC50 value calculations. The EC50 value represents CDN concentration that gives half-maximal response of firefly luciferase in the 293T reporter assay.

STING HAQ = biological target: T2, STING HAQ (Homo sapiens, UniProt Q86WV6, G230A/H232R/R293Q/R71H); test: 293T STING digitonin reporter assay (HAQ haplotype); assay type: cell-based; conditions: digitonin permeabilised 293T reporter cells
T2 construct: expressed in transfected cells
Experimental: as §1

STING REF = biological target: T3, STING REF (Homo sapiens, UniProt Q86WV6); test: 293T STING digitonin reporter assay (REF haplotype); assay type: cell-based; conditions: digitonin permeabilised 293T reporter cells
T3 construct: expressed in transfected cells
Experimental: as §1

STING AQ = biological target: T4, STING AQ (Homo sapiens, UniProt Q86WV6, G230A/H232R/R293Q); test: 293T STING digitonin reporter assay (AQ haplotype); assay type: cell-based; conditions: digitonin permeabilised 293T reporter cells
T4 construct: expressed in transfected cells
Experimental: as §1

STING Q = test: 293T STING digitonin reporter assay (Q haplotype); assay type: cell-based, human; conditions: digitonin permeabilised 293T reporter cells
Experimental: as §1

Her2 = Her2 (UniProt P04626); test: cell-based or functional assay
TROP2 = biological target: T5, TROP2 (UniProt P09758 27-323, limits assumed); test: cell-based or functional assay
T5 sequence (looked up): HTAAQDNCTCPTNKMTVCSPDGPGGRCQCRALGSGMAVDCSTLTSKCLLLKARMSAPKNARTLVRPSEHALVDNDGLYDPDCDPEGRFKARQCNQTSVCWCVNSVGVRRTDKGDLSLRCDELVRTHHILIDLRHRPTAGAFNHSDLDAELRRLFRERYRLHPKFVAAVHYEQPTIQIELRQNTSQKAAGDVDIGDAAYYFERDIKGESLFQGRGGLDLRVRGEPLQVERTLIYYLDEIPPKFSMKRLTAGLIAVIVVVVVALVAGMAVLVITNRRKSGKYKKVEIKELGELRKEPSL

[4] = monoclonal antibody: anti TROP2 mA5, 37°C
[5] = compound conjugated to anti Her2 mA2 via interchain cysteines

T4 sequence (Q86WV6 whole entry G230A/H232R/R293Q): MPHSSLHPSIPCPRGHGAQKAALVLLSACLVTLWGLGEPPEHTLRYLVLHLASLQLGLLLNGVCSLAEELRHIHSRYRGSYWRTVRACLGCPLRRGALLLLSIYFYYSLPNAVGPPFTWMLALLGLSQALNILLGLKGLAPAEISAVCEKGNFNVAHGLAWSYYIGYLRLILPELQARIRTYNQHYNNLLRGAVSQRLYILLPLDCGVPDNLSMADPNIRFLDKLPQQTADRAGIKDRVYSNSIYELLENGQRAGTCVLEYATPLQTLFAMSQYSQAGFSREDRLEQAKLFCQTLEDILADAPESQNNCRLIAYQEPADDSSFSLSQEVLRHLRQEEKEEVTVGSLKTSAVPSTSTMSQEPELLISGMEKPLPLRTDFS
T2 sequence (Q86WV6 whole entry R71H/G230A/H232R/R293Q): as the sequence (Q86WV6 whole entry G230A/H232R/R293Q) above, with R71H counted along it
T3 sequence (Q86WV6 whole entry): as the sequence (Q86WV6 whole entry G230A/H232R/R293Q) above, with A230G, R232H, Q293R counted along it
T1 sequence (Q86WV6 whole entry H232R): as the sequence (Q86WV6 whole entry G230A/H232R/R293Q) above, with A230G, Q293R counted along it

## CC(C)[C@H](NC(=O)CN1C(=O)C=CC1=O)C(=O)N[C@@H](CCCNC(N)=O)C(=O)Nc1ccc(COC(=O)N(C)CCOC(=O)Nc2ncnc3c2ncn3[C@@H]2O[C@H]3COP(=O)(S)O[C@@H]4[C@H](F)[C@@H](COP(=O)(S)OC[C@H]3[C@H]2F)O[C@H]4n2cnc3c(=O)[nH]cnc32)cc1 (stereo partly drawn) [Compound 3.3, 4-((S)-2-((S)-2-(2-(2,5-dioxo-2,5-dihydro-1H-pyrrol-1-yl)acetamido)-3-methylbutanamido)-5-ureidopentanamido)benzyl (2-(((9-((6R,8R,9S,13aR,15R,16R,16aR,17R)-16,17-difluoro-3,11-dimercapto-3,11-dioxido-8-(6-oxo-1,6-dihydro-9H-purin-9-yl)decahydro-6,9-methanofuro[3,2-m][1,3,6,9,12]pentaoxa[2,10]diphosphacyclopentadecin-15-yl)-9H-purin-6-yl)carbamoyl)oxy)ethyl)(methyl)carbamate]
[1]; attached to anti Her2 mAb2 via interchain cysteines (Fig. 3)
  attachment to anti Her2 mAb2 in mouse plasma: stable over period up to 15 days
[1]; attached to engineered light chain V110C and heavy chain S375C of mAb5 (Fig. 4)
  retention on anti-TROP2 mAb5: excellent retention

## 4-((S)-2-((S)-2-(2-(2,5-dioxo-2,5-dihydro-1H-pyrrol-1-yl)acetamido)-3-methylbutanamido)-5-ureidopentanamido)benzyl (9-((6R,8R,9S,13aR,15R,16R,16aR,17R)-16,17-difluoro-3,11-dimercapto-3,1 1-dioxido-8-(6-oxo-1,6-dihydro-9H-purin-9-yl)decahydro-6,9-methanofuro[3,2-m][1,3,6,9,12]pentaoxa[2,10]diphosphacyclopentadecin-15-yl)-9H-purin-6-yl)carbamate [Compound 3.13]
[2]; [4]
  Mouse plasma T ½: 9.6 days

## (2S)-N-((2S)-1-((4-((((6R,8R,9S,13aR,15R,16R,16aR,17R)-15-(6-amino-9H-purin-9-yl)-16,17-difluoro-3-mercapto-3,11-dioxido-8-(6-oxo-1,6-dihydro-9H-purin-9-yl)decahydro-6,9-methanofuro[3,2-m][1,3,6,9,12]pentaoxa[2,10]diphosphacyclopentadecin-11-yl)thio)methyl)phenyl)amino)-1-oxopropan-2-yl)-2-(2-(2,5-dioxo-2,5-dihydro-1H-pyrrol-1-yl)acetamido)-3-methylbutanamide [Compound 3.19, reference compound]
[3]; [5]
  Drug Antibody ratio (DAR): 2.5

## 4-((S)-2-((S)-2-(2-(2,5-dioxo-2,5-dihydro-1H-pyrrol-1-yl)acetamido)-3-methylbutanamido)-5-ureidopentanamido)benzyl (2-(((9-((6R,8R,9S,13aR,15R,16R,16aR,17R)-16,17-difluoro-3,11-dimercapto-3,11-dioxido-8-(6-oxo-1,6-dihydro-9H-purin-9-yl)decahydro-6,9-methanofuro[3,2-m][1,3,6,9,12]pentaoxa[2,10]diphosphacyclopentadecin-15-yl)-9H-purin-6-yl)carbamoyl)oxy)ethyl)(methyl)carbamate [Compound 3.3]
[2]; monoclonal antibody: anti Her2 mA2, 37°C
  Mouse plasma T ½: >15 days
[2]; [4]
  Mouse plasma T ½: >15 days
[3]; [5]
  Drug Antibody ratio (DAR): 3.7
[3]; compound conjugated to isotype mAb (Table 18)
  Drug Antibody ratio (DAR): 4.0

## Nc1ncnc2c1ncn2[C@@H]1O[C@@H]2OCP(=O)(S)O[C@@H]3[C@H](F)[C@@H](COP(=O)(S)OC[C@H]2[C@H]1F)O[C@H]3n1cnc2c(=O)[nH]cnc21 (single isomer, unassigned) [Compound 2.1]
STING WT
  EC50: 30 nM
STING HAQ
  EC50: 180 nM
STING REF
  EC50: 140 nM
STING AQ
  EC50: 180 nM
STING Q
  EC50: 350 nM

B1: isotype mAb Libivirumab (anti HBsAg mAb) conjugated with Compound 3.4 (antibody, human IgG1, kappa, V domains shown)
VH: QVQLVESGGGVVRPGRSLRLSCAASGFAFSDYSINWVRQAPGKGLEWVAIISYDGRITYYRDSVKGRFTISRDDSKNTLYLQMNSLRTEDTAVYYCARQYYDFWSGSSVGRNYDGMDVWGLGTTVTVSS
VL: DIVMTQSPLSLSVTPGEPASISCRSSQSLLHRSGNNYLDWYLQKPGHSPQLLIYVGSNRASGVPDRFSGSGSGTEYTLKISRVEAEDVGVYYCMQALQTPRTFGQGTKLEIKR
Her2
  HCC1954 IP10 EC50: > 1000 nM

B2: isotype mAb Libivirumab (anti HBsAg mAb) conjugated with Compound 3.13 (antibody, human IgG1, kappa, V domains shown)
VH: B1 VH
VL: B1 VL
TROP2
  HCC1954 IP10 EC50: > 1000 nM
  TROP2+ 293T EC50: > 1000 nM

B3: isotype mAb Libivirumab (anti HBsAg mAb) conjugated with Compound 3.3 (antibody, human IgG1, kappa, V domains shown)
VH: B1 VH
VL: B1 VL
Her2
  HCC1954 IP10 EC50: > 1000 nM
TROP2
  HCC1954 IP10 EC50: > 1000 nM
  TROP2+ 293T EC50: > 1000 nM

B4: anti-TROP2 mAb5 (Sacituzumab, heavy chain S375C, light chain V110C) conjugated with Compound 3.3 (antibody, human IgG1, V domains shown)
VH: QVQLQQSGSELKKPGASVKVSCKASGYTFTNYGMNWVKQAPGQGLKWMGWINTYTGEPTYTDDFKGRFAFSLDTSVSTAYLQISSLKADDTAVYFCARGGFGSSYWYFDVWGQGSLVTVSS
VL: DIQLTQSPSSLSASVGDRVSITCKASQDVSIAVAWYQQKPGKAPKLLIYSASYRYTGVPDRFSGSGSGTDFTLTISSLQPEDFAVYYCQQHYITPLTFGAGTKVEIKR
modifications: Compound 3.3 on engineered C110 (EU numbering); Compound 3.3 on engineered C375 (EU numbering); DAR 3.7 for the whole antibody
TROP2
  HCC1954 IP10 EC50: 8 nM
  TROP2+ 293T EC50: 8 nM

B5: anti-TROP2 mAb5 (Sacituzumab, heavy chain S375C, light chain V110C) conjugated with Compound 3.13 (antibody, human IgG1, V domains shown)
VH: B4 VH
VL: B4 VL
modifications: Compound 3.13 on engineered C110 (EU numbering); Compound 3.13 on engineered C375 (EU numbering); DAR 3.3 for the whole antibody
TROP2
  HCC1954 IP10 EC50: 2 nM
  TROP2+ 293T EC50: 3 nM

B6: anti-TROP2 mAb5 (Sacituzumab, heavy chain S375C, light chain V110C) conjugated with Compound 3.18 (antibody, human IgG1, V domains shown)
VH: B4 VH
VL: B4 VL
modifications: Compound 3.18 on engineered C110 (EU numbering); Compound 3.18 on engineered C375 (EU numbering); DAR 3.6 for the whole antibody
TROP2
  HCC1954 IP10 EC50: 6 nM
  TROP2+ 293T EC50: 2 nM

B7: anti-TROP2 mAb5 (Sacituzumab, heavy chain S375C, light chain V110C) conjugated with Compound 3.17 (antibody, human IgG1, V domains shown)
VH: B4 VH
VL: B4 VL
modifications: Compound 3.17 on engineered C110 (EU numbering); Compound 3.17 on engineered C375 (EU numbering); DAR 3.6 for the whole antibody
TROP2
  HCC1954 IP10 EC50: 8 nM
  TROP2+ 293T EC50: 3 nM

B8: anti-TROP2 mAb5 (Sacituzumab, heavy chain S375C, light chain V110C) conjugated with Compound 3.16 (antibody, human IgG1, V domains shown)
VH: B4 VH
VL: B4 VL
modifications: Compound 3.16 on engineered C110 (EU numbering); Compound 3.16 on engineered C375 (EU numbering); DAR 3.3 for the whole antibody
TROP2
  HCC1954 IP10 EC50: 5 nM
  TROP2+ 293T EC50: 4 nM
